Experimental data taken from paper PMC4184033 (Nature structural & molecular biology, 2011).

T1: Mcm5 (Drosophila melanogaster, UniProt Q9VGW6 1-733)
T1 sequence (looked up): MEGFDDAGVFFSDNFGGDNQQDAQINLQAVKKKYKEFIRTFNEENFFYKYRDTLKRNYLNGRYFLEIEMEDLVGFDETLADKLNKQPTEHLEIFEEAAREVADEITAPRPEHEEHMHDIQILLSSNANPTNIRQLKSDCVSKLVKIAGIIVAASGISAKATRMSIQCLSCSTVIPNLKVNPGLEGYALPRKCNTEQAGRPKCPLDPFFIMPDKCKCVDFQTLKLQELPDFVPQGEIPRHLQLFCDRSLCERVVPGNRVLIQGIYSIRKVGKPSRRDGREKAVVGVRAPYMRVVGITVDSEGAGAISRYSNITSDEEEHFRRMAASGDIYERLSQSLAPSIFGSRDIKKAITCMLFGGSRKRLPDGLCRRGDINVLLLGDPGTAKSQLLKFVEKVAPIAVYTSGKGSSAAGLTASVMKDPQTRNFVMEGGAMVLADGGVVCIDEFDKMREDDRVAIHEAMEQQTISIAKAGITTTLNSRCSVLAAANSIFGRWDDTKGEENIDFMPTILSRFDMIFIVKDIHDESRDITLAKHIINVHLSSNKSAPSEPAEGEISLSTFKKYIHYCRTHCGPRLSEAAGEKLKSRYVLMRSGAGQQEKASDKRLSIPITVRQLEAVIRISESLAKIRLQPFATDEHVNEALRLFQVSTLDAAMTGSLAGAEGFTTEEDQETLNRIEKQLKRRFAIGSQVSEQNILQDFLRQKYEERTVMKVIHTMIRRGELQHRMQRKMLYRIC

T2: Mcm2 (Drosophila melanogaster, UniProt P49735 1-887)
T2 sequence (looked up): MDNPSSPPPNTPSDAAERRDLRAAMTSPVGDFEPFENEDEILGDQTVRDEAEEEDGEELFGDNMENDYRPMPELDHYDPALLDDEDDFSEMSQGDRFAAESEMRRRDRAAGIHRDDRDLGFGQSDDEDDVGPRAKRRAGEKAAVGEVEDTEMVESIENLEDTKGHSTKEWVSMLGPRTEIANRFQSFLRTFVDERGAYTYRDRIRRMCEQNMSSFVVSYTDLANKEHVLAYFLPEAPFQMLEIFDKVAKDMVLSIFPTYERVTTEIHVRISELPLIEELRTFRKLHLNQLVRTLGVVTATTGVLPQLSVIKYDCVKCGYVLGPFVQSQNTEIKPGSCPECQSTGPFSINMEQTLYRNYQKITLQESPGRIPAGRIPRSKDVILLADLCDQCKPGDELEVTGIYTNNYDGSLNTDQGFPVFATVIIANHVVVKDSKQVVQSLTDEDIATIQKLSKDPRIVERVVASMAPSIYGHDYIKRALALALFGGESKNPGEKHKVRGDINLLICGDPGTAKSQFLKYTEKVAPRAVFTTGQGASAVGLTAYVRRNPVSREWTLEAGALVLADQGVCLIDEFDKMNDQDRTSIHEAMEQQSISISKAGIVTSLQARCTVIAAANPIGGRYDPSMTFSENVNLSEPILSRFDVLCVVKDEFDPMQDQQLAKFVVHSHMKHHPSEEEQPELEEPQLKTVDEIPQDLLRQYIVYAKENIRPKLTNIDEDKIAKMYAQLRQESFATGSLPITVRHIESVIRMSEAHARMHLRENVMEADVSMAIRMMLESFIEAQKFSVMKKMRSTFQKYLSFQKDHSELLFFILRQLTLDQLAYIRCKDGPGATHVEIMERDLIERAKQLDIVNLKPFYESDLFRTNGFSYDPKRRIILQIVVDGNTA

B1: Cdc45 (natural protein, Drosophila melanogaster, UniProt O96989 1-575, looked up)
chain: MFVQDLRNDFYRQLVGKRILIVVNYDIDAICASRILQALFKYDHMLYTVVPIMGVTGLKRAYGEHQGDVKYVVLVNCGGCVDIVELLQPSDDVTFFICDSHRPLDVCNIYSDRQVCILGDASLEENIPAFETIFYDSEGEDEDEDESSDTEQQHDDSGAGESDQEDQAPRSRKLSRLERHEQRILKQRARRQWESERDRIMFEYTQFSYYGRSAALMVFELAWKLSKDNMDLLWWAIVGITEQLLLGKIESGAYTLELEQIQSHVSRLTNKTNDQNTMSASKITFENDLHLVLYRHWPVTESMRYSRYSSCQLKLWTLRGEKRLHELLLEMGLPLVHARQTYGAMDLVLRKEFFSMVERLAEKYDIADIVYGTFTLSYGYRSRYAAADYVYALLAIMESVKKHKTPEDCFLEASDALSRQHKQLLSAGIDQAKLLHAAVFRQVQSSLEARQVHSAGSFFYYVLQEEHAFFSYPYALGLLARFLLRGHVATSRARQASDLPLIASCPLNASEGMCLLVGIVPVREDSPRNFFGKAFEQAAQKSGVALLQDFFEPAVVQLRQSDLTRFLDSLTVLLA

Legend:
Assay in all cases: negative-stain single-particle EM
[1] = target: T1, Mcm5
[2] = target: B1
[3] = target: T2, Mcm2

Row | binding result [1] | binding result [2] | binding result [3] | Binder
1 | binds | binds | – | Psf2 (natural protein, Drosophila melanogaster, UniProt Q9VQY9 1-203, looked up) MDPSIIEFIGEKCMISIIPNFSNEPLHLIYGPVGPFRAGFPVFVPLWMATHLRKQQKCRIVPPEWMDMDILEEIKEEEKRSKFFTKMPCEHYMVVAQLVMSTAPDDVPRCEELRTVIKDIFDIRESKLRTSIDAFIKGEGTYAKLDNLTLLEIHSVRPILPYSLDHIARYQRTATASQRDTSMLSASMAGSSSGPNSNSLFSQ
2 | – | – | binds | B1
